Test results as given in patent US20240342199.

What was measured:
[1] = target: Recombinant GST-CypD (wild type) (UniProt P30405)
[2] = target: Recombinant CypD Ser123→Ala mutant (UniProt P30405)
Recombinant CypD Ser123→Ala mutant, sequence (P30405 whole entry, looked up, change not shown): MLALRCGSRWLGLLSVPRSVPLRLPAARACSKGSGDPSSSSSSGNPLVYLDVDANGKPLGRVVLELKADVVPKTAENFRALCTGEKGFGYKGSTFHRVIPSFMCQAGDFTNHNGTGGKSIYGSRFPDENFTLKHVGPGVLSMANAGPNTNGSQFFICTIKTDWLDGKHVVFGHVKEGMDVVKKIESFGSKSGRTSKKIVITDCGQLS

Recombinant GST-CypD (wild type), sequence (P30405 whole entry): as the sequence (P30405 whole entry, looked up, change not shown) above

In the case of active Akt1, the “kinase assay with recombinant proteins, autoradiography” value [1] was “readily phosphorylated” and the “kinase assay with recombinant proteins, autoradiography” value [2] was “readily phosphorylated”.
